T1: human CD131 (human, UniProt P32927 17-897)
T1 sequence: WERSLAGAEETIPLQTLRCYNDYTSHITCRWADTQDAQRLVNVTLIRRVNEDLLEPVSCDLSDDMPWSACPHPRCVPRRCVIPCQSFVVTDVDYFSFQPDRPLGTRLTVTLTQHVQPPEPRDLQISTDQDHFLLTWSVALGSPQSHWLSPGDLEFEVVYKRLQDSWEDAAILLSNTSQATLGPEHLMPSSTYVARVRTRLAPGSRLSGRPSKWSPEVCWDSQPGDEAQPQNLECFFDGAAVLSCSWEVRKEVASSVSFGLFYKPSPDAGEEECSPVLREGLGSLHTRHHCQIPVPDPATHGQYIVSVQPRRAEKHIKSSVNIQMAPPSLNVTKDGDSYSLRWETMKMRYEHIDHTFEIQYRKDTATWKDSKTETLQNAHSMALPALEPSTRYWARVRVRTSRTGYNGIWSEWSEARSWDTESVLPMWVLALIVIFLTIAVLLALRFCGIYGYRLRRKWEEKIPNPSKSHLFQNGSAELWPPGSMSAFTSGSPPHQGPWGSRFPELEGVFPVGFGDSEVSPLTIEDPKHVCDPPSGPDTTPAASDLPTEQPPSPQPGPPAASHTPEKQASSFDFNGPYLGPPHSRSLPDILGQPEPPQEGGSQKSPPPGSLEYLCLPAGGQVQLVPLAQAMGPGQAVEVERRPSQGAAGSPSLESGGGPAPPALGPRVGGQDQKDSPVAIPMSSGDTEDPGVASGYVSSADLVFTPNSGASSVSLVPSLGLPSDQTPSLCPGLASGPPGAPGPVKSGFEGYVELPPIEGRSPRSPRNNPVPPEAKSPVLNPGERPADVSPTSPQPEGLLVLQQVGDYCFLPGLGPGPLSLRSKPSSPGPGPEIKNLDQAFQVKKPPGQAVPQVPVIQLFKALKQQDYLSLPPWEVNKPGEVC

B1: 9A2-VR13 (antibody, V domains shown)
VH: EVQLLESGGGLVQPGGSLRLSCAASGFTFSHYHMLWVRQAPGKGLEWVSSIRSSGGFTYYADSVKGRFTISRDNSKNTLYLQMNSLRAEDTAVYYCARFYDSFFDIWGQGTMVTVSS
VL: DIQMTQSPSSVSASVGDRVTITCRASQGISSWLAWYQQKPGKAPKLLIYAASSLQSGVPSRFSGSGSGTDFTLTISSLQPEDFATYYCGKPVLDPITFGQGTRLEIKR
B2: 9A2-VR23 (antibody, V domains shown)
VH: EVQLLESGGGLVQPGGSLRLSCAASGFTFEWYRVHWVRQAPGKGLEWVSSIRSSGGFTYYADSVKGRFTISRDNSKNTLYLQMNSLRAEDTAVYYCARFYDSFFDIWGQGTMVTVSS
VL: DIQMTQSPSSVSASVGDRVTITCRASQGISSWLAWYQQKPGKAPKLLIYAASSLQSGVPSRFSGSGSGTDFTLTISSLQPEDFATYYCQQANSFPITFGQGTRLEIKR
B3: 9A2-VR20 (antibody, V domains shown)
VH: EVQLLESGGGLVQPGGSLRLSCAASGFTFNHYRVHWVRQAPGKGLEWVSSIRSSGGFTYYADSVKGRFTISRDNSKNTLYLQMNSLRAEDTAVYYCARFYDSFFDIWGQGTMVTVSS
VL: DIQMTQSPSSVSASVGDRVTITCRASQGISSWLAWYQQKPGKAPKLLIYAASSLQSGVPSRFSGSGSGTDFTLTISSLQPEDFATYYCQQANSFPITFGQGTRLEIKR
B4: 9A2-VR22 (antibody, V domains shown)
VH: EVQLLESGGGLVQPGGSLRLSCAASGFTFQWYRVHWVRQAPGKGLEWVSSIRSSGGFTYYADSVKGRFTISRDNSKNTLYLQMNSLRAEDTAVYYCARFYDSFFDIWGQGTMVTVSS
VL: DIQMTQSPSSVSASVGDRVTITCRASQGISSWLAWYQQKPGKAPKLLIYAASSLQSGVPSRFSGSGSGTDFTLTISSLQPEDFATYYCQQANSFPITFGQGTRLEIKR
B5: 9A2-VR34 (antibody, V domains shown)
VH: EVQLLESGGGLVQPGGSLRLSCAASGFTFSHYHMLWVRQAPGKGLEWVSSISGSHFPTYYADSVKGRFTISRDNSKNTLYLQMNSLRAEDTAVYYCARFYDSFFDIWGQGTMVTVSS
VL: DIQMTQSPSSVSASVGDRVTITCRASQGISSWLAWYQQKPGKAPKLLIYAASSLQSGVPSRFSGSGSGTDFTLTISSLQPEDFATYYCQQANSFPITFGQGTRLEIKR
B6: 9A2-VR37 (antibody, V domains shown)
VH: EVQLLESGGGLVQPGGSLRLSCAASGFTFSHYHMLWVRQAPGKGLEWVSSISGSMWSTYYADSVKGRFTISRDNSKNTLYLQMNSLRAEDTAVYYCARFYDSFFDIWGQGTMVTVSS
VL: DIQMTQSPSSVSASVGDRVTITCRASQGISSWLAWYQQKPGKAPKLLIYAASSLQSGVPSRFSGSGSGTDFTLTISSLQPEDFATYYCQQANSFPITFGQGTRLEIKR
B7: 9A2-VR19 (antibody, V domains shown)
VH: EVQLLESGGGLVQPGGSLRLSCAASGFTFSHYHMLWVRQAPGKGLEWVSSIRSSGGFTYYADSVKGRFTISRDNSKNTLYLQMNSLRAEDTAVYYCARFYDSFFDIWGQGTMVTVSS
VL: DIQMTQSPSSVSASVGDRVTITCRASQGISSWLAWYQQKPGKAPKLLIYAASSLQSGVPSRFSGSGSGTDFTLTISSLQPEDFATYYCGIPILGPITFGQGTRLEIKR
B8: 9A2-VR14 (antibody, V domains shown)
VH: EVQLLESGGGLVQPGGSLRLSCAASGFTFSHYHMLWVRQAPGKGLEWVSSIRSSGGFTYYADSVKGRFTISRDNSKNTLYLQMNSLRAEDTAVYYCARFYDSFFDIWGQGTMVTVSS
VL: DIQMTQSPSSVSASVGDRVTITCRASQGISSWLAWYQQKPGKAPKLLIYAASSLQSGVPSRFSGSGSGTDFTLTISSLQPEDFATYYCGKPVFDPITFGQGTRLEIKR
B9: 9A2-VR32 (antibody, V domains shown)
VH: EVQLLESGGGLVQPGGSLRLSCAASGFTFSHYHMLWVRQAPGKGLEWVSSISGSVRSTYYADSVKGRFTISRDNSKNTLYLQMNSLRAEDTAVYYCARFYDSFFDIWGQGTMVTVSS
VL: DIQMTQSPSSVSASVGDRVTITCRASQGISSWLAWYQQKPGKAPKLLIYAASSLQSGVPSRFSGSGSGTDFTLTISSLQPEDFATYYCQQANSFPITFGQGTRLEIKR
B10: 9A2-VR26 (antibody, V domains shown)
VH: EVQLLESGGGLVQPGGSLRLSCAASGFTFIHYRVHWVRQAPGKGLEWVSSIRSSGGFTYYADSVKGRFTISRDNSKNTLYLQMNSLRAEDTAVYYCARFYDSFFDIWGQGTMVTVSS
VL: DIQMTQSPSSVSASVGDRVTITCRASQGISSWLAWYQQKPGKAPKLLIYAASSLQSGVPSRFSGSGSGTDFTLTISSLQPEDFATYYCQQANSFPITFGQGTRLEIKR
B11: 9A2-VR31 (antibody, V domains shown)
VH: EVQLLESGGGLVQPGGSLRLSCAASGFTFSHYHMLWVRQAPGKGLEWVSSISGAQWSTYYADSVKGRFTISRDNSKNTLYLQMNSLRAEDTAVYYCARFYDSFFDIWGQGTMVTVSS
VL: DIQMTQSPSSVSASVGDRVTITCRASQGISSWLAWYQQKPGKAPKLLIYAASSLQSGVPSRFSGSGSGTDFTLTISSLQPEDFATYYCQQANSFPITFGQGTRLEIKR
B12: 9A2-VR36 (antibody, V domains shown)
VH: EVQLLESGGGLVQPGGSLRLSCAASGFTFSHYHMLWVRQAPGKGLEWVSSIGGDKRQTYYADSVKGRFTISRDNSKNTLYLQMNSLRAEDTAVYYCARFYDSFFDIWGQGTMVTVSS
VL: DIQMTQSPSSVSASVGDRVTITCRASQGISSWLAWYQQKPGKAPKLLIYAASSLQSGVPSRFSGSGSGTDFTLTISSLQPEDFATYYCQQANSFPITFGQGTRLEIKR
B13: 9A2-VR38 (antibody, V domains shown)
VH: EVQLLESGGGLVQPGGSLRLSCAASGFTFSHYHMLWVRQAPGKGLEWVSSINGMGATTYYADSVKGRFTISRDNSKNTLYLQMNSLRAEDTAVYYCARFYDSFFDIWGQGTMVTVSS
VL: DIQMTQSPSSVSASVGDRVTITCRASQGISSWLAWYQQKPGKAPKLLIYAASSLQSGVPSRFSGSGSGTDFTLTISSLQPEDFATYYCQQANSFPITFGQGTRLEIKR
B14: 9A2-VR33 (antibody, V domains shown)
VH: EVQLLESGGGLVQPGGSLRLSCAASGFTFSHYHMLWVRQAPGKGLEWVSSINGSGWTTYYADSVKGRFTISRDNSKNTLYLQMNSLRAEDTAVYYCARFYDSFFDIWGQGTMVTVSS
VL: DIQMTQSPSSVSASVGDRVTITCRASQGISSWLAWYQQKPGKAPKLLIYAASSLQSGVPSRFSGSGSGTDFTLTISSLQPEDFATYYCQQANSFPITFGQGTRLEIKR
B15: 9A2-VR27 (antibody, V domains shown)
VH: EVQLLESGGGLVQPGGSLRLSCAASGFTFTHYRVHWVRQAPGKGLEWVSSIRSSGGFTYYADSVKGRFTISRDNSKNTLYLQMNSLRAEDTAVYYCARFYDSFFDIWGQGTMVTVSS
VL: DIQMTQSPSSVSASVGDRVTITCRASQGISSWLAWYQQKPGKAPKLLIYAASSLQSGVPSRFSGSGSGTDFTLTISSLQPEDFATYYCQQANSFPITFGQGTRLEIKR
B16: 9A2-VR21 (antibody, V domains shown)
VH: EVQLLESGGGLVQPGGSLRLSCAASGFTFMHYRVHWVRQAPGKGLEWVSSIRSSGGFTYYADSVKGRFTISRDNSKNTLYLQMNSLRAEDTAVYYCARFYDSFFDIWGQGTMVTVSS
VL: DIQMTQSPSSVSASVGDRVTITCRASQGISSWLAWYQQKPGKAPKLLIYAASSLQSGVPSRFSGSGSGTDFTLTISSLQPEDFATYYCQQANSFPITFGQGTRLEIKR
B17: 9A2-VR35 (antibody, V domains shown)
VH: EVQLLESGGGLVQPGGSLRLSCAASGFTFSHYHMLWVRQAPGKGLEWVSSINGFGRNTYYADSVKGRFTISRDNSKNTLYLQMNSLRAEDTAVYYCARFYDSFFDIWGQGTMVTVSS
VL: DIQMTQSPSSVSASVGDRVTITCRASQGISSWLAWYQQKPGKAPKLLIYAASSLQSGVPSRFSGSGSGTDFTLTISSLQPEDFATYYCQQANSFPITFGQGTRLEIKR
B18: 9A2-VR16 (antibody, V domains shown)
VH: EVQLLESGGGLVQPGGSLRLSCAASGFTFSHYHMLWVRQAPGKGLEWVSSIRSSGGFTYYADSVKGRFTISRDNSKNTLYLQMNSLRAEDTAVYYCARFYDSFFDIWGQGTMVTVSS
VL: DIQMTQSPSSVSASVGDRVTITCRASQGISSWLAWYQQKPGKAPKLLIYAASSLQSGVPSRFSGSGSGTDFTLTISSLQPEDFATYYCGIPVLGPITFGQGTRLEIKR
B19: 9A2-VR28 (antibody, V domains shown)
VH: EVQLLESGGGLVQPGGSLRLSCAASGFTFVHYRVHWVRQAPGKGLEWVSSIRSSGGFTYYADSVKGRFTISRDNSKNTLYLQMNSLRAEDTAVYYCARFYDSFFDIWGQGTMVTVSS
VL: DIQMTQSPSSVSASVGDRVTITCRASQGISSWLAWYQQKPGKAPKLLIYAASSLQSGVPSRFSGSGSGTDFTLTISSLQPEDFATYYCQQANSFPITFGQGTRLEIKR

The binders below were run against T1, human CD131 (assay: cell-based or functional assay).

Going from B1 to B2, the “IC50 GM-CSF, TF-1 proliferation” value falls from > 1000 nM to 60 nM.

Compared with B3, B4 is 2-fold lower in “IC50 GM-CSF, TF-1 proliferation” value: 79.3 nM for the first, 39.9 nM for the second.

Going from B5 to B6, the “IC50 GM-CSF, TF-1 proliferation” value falls from 184 nM to 48.1 nM (3.8-fold).

B7 and B8 cannot be ordered by “IC50 GM-CSF, TF-1 proliferation” value: > 1000 nM for the first, > 1000 nM for the second.

First: B9
Second: B10
The “IC50 GM-CSF, TF-1 proliferation” value of the first is 6.8-fold higher: 31.2 nM for the first, 4.6 nM for the second.

Going from B11 to B12, the “IC50 GM-CSF, TF-1 proliferation” value falls from 233 nM to 38.1 nM (6.1-fold).

First: B13
Second: B14
The “IC50 GM-CSF, TF-1 proliferation” value of the first is 120-fold lower: 5 nM for the first, 602 nM for the second.

First: B15
Second: B16
The “IC50 GM-CSF, TF-1 proliferation” value of the first is 20-fold lower: 4.9 nM for the first, 99.8 nM for the second.

Going from B17 to B18, the “IC50 GM-CSF, TF-1 proliferation” value rises from 76 nM to > 1000 nM.

In the case of B19, the “IC50 GM-CSF, TF-1 proliferation” value is reported as 47.9 nM.

First: B2
Second: B10
The “pStat5 IC50 GM-CSF, TF-1 bla reporter” value of the first is higher: 24 nM for the first, 23.6 nM for the second.

In the case of B15, the “pStat5 IC50 GM-CSF, TF-1 bla reporter” value is reported as 8.5 nM.

Source: patent US20190062438A1 (CSL, published 2019)
